The source of these data is PMC4697752.

To fix the notation:
B1: Matrix metalloproteinase-9 (MMP-9): mS38 (protein)
parent chain: MSLWQPLVLVLLVLGCCFAAPRQRQSTLVLFPGDLRTNLTDRQLAEEYLYRYGYTRVAEMRGESKSLGPALLLLQKQLSLPETGELDSATLKAMRTPRCGVPDLGRFQTFEGDLKWHHHNITYWIQNYSEDLPRAVIDDAFARAFALWSAVTPLTFTRVYSRDADIVIQFGVAEHGDGYPFDGKDGLLAHAFPPGPGIQGDAHFDDDELWSLGKGVVVPTRFGNADGAACHFPFIFEGRSYSACTTDGRSDGLPWCSTTANYDTDDRFGFCPSERLYTQDGNADGKPCQFPFIFQGQSYSACTTDGRSDGYRWCATTANYDRDKLFGFCPTRADSTVMGGNSAGELCVFPFTFLGKEYSTCTSEGRGDGRLWCATTSNFDSDKKWGFCPDQGYSLFLVAAHEFGHALGLDHSSVPEALMYPMYRFTEGPPLHKDDVNGIRHLYGPRPEPEPRPPTTTTPQPTAPPTVCPTGPPTVHPSERPTAGPTGPPSAGPTGPPTAGPSTATTVPLSPVDDACNVNIFDAIAEIGNQLYLFKDGKYWRFSEGRGSRPQGPFLIADKWPALPRKLDSVFEERLSKKLFFFSGRQVWVYTGASVLGPRRLDKLGLGADVAQVTGALRSGRGKMLLFSGRRLWRFDVKAQMVDPRSASEVDRMFPGVPLDTHDVFQYREKAYFCQDRFYWRVSSRSELNQVDQVGYVTYDILQCPED
B2: Matrix metalloproteinase-9 (MMP-9): N120S (protein)
parent chain: MSLWQPLVLVLLVLGCCFAAPRQRQSTLVLFPGDLRTNLTDRQLAEEYLYRYGYTRVAEMRGESKSLGPALLLLQKQLSLPETGELDSATLKAMRTPRCGVPDLGRFQTFEGDLKWHHHNITYWIQNYSEDLPRAVIDDAFARAFALWSAVTPLTFTRVYSRDADIVIQFGVAEHGDGYPFDGKDGLLAHAFPPGPGIQGDAHFDDDELWSLGKGVVVPTRFGNADGAACHFPFIFEGRSYSACTTDGRSDGLPWCSTTANYDTDDRFGFCPSERLYTQDGNADGKPCQFPFIFQGQSYSACTTDGRSDGYRWCATTANYDRDKLFGFCPTRADSTVMGGNSAGELCVFPFTFLGKEYSTCTSEGRGDGRLWCATTSNFDSDKKWGFCPDQGYSLFLVAAHEFGHALGLDHSSVPEALMYPMYRFTEGPPLHKDDVNGIRHLYGPRPEPEPRPPTTTTPQPTAPPTVCPTGPPTVHPSERPTAGPTGPPSAGPTGPPTAGPSTATTVPLSPVDDACNVNIFDAIAEIGNQLYLFKDGKYWRFSEGRGSRPQGPFLIADKWPALPRKLDSVFEERLSKKLFFFSGRQVWVYTGASVLGPRRLDKLGLGADVAQVTGALRSGRGKMLLFSGRRLWRFDVKAQMVDPRSASEVDRMFPGVPLDTHDVFQYREKAYFCQDRFYWRVSSRSELNQVDQVGYVTYDILQCPED
B3: Matrix metalloproteinase-9 (MMP-9): mS38/N120S (protein)
parent chain: MSLWQPLVLVLLVLGCCFAAPRQRQSTLVLFPGDLRTNLTDRQLAEEYLYRYGYTRVAEMRGESKSLGPALLLLQKQLSLPETGELDSATLKAMRTPRCGVPDLGRFQTFEGDLKWHHHNITYWIQNYSEDLPRAVIDDAFARAFALWSAVTPLTFTRVYSRDADIVIQFGVAEHGDGYPFDGKDGLLAHAFPPGPGIQGDAHFDDDELWSLGKGVVVPTRFGNADGAACHFPFIFEGRSYSACTTDGRSDGLPWCSTTANYDTDDRFGFCPSERLYTQDGNADGKPCQFPFIFQGQSYSACTTDGRSDGYRWCATTANYDRDKLFGFCPTRADSTVMGGNSAGELCVFPFTFLGKEYSTCTSEGRGDGRLWCATTSNFDSDKKWGFCPDQGYSLFLVAAHEFGHALGLDHSSVPEALMYPMYRFTEGPPLHKDDVNGIRHLYGPRPEPEPRPPTTTTPQPTAPPTVCPTGPPTVHPSERPTAGPTGPPSAGPTGPPTAGPSTATTVPLSPVDDACNVNIFDAIAEIGNQLYLFKDGKYWRFSEGRGSRPQGPFLIADKWPALPRKLDSVFEERLSKKLFFFSGRQVWVYTGASVLGPRRLDKLGLGADVAQVTGALRSGRGKMLLFSGRRLWRFDVKAQMVDPRSASEVDRMFPGVPLDTHDVFQYREKAYFCQDRFYWRVSSRSELNQVDQVGYVTYDILQCPED

This data set can be described thus: secreted mCherry-tagged MMP-9, microplate reader. The conditions noted are these: glycan lost; control: wild type.
As to B1, the expression_or_secretion result is listed as “no change”.
Turning to B2, the expression_or_secretion result is “decreases”.
Then B3, with “decreases”.
